B1: Hs PNRC2(91-121) (domain or fragment)
chain: not shown
B2: Sp Dcp1(1-127) (natural protein, fission yeast (Sp), UniProt Q9P805 1-127, looked up)
chain: MEDENILRNAVNLQVLKFHYPEIESIIDIASHVAVYQFDVGSQKWLKTSIEGTFFLVKDQRARVGYVILNRNSPENLYLFINHPSNVHLVDRYLIHRTENQHVVGLWMFDPNDMSRIFNIVKESLLR

Experiments:
[1] = target: B2; assay: crystal structure
[2] = target: T1, Sp Dcp2(1-243), as part of the single chain (fission yeast (Sp), UniProt O13828 1-243); assay: crystal structure
T1 sequence (looked up): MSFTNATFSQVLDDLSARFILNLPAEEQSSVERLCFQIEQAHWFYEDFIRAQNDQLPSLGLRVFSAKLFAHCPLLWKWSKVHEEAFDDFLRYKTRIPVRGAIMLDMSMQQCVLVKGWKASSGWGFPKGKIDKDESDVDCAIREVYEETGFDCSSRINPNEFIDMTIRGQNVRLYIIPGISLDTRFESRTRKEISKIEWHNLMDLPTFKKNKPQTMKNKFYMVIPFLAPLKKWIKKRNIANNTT

Row | Binder | binding result [1] | binding result [2]
1 | B1 | binds | –
2 | B2 | – | binds
